Assay results: the RNAGym collection of RNA variant scans (doi:10.1101/gr.219683.116)

B1: mRNA-splicing (parent)
chain: AGUUGCUGCUGGGAGCUCCAGCACAGUGAAAUGGACAGAAGGGCAGAGCAA

Variants of: B1
Assay: exon inclusion enrichment index; higher = more inclusion; WT1 exon 5 minigene, HEK293

| Variant | exon inclusion enrichment index |
| --- | --- |
| AACUGAAGAAGGGAGCUCCAGCACAGUGAAAUGGACAGAAGGGCAGAGCAA | 0.648 |
| AUUUAGGGAUGGGAGCUCCAGCACAGUGAAAUGGACAGAAGGGCAGAGCAA | 0.0266 |
| AAUUGAAGAAGGGAGCUCCAGCACAGUGAAAUGGACAGAAGGGCAGAGCAA | 0.929 |
| AACUAGGGAUGGGAGCUCCAGCACAGUGAAAUGGACAGAAGGGCAGAGCAA | 0.0183 |
| AUAUACCACCGGGAGCUCCAGCACAGUGAAAUGGACAGAAGGGCAGAGCAA | 3.36 |
| AAGUGACGACGGGAGCUCCAGCACAGUGAAAUGGACAGAAGGGCAGAGCAA | 2.22 |
| AAGUUCUUUUGGGAGCUCCAGCACAGUGAAAUGGACAGAAGGGCAGAGCAA | 0.0993 |
| AUUUACCACCGGGAGCUCCAGCACAGUGAAAUGGACAGAAGGGCAGAGCAA | 3.56 |
| ACCUGACGACGGGAGCUCCAGCACAGUGAAAUGGACAGAAGGGCAGAGCAA | 2.79 |
| ACCUGCUGCUGGGAGCUCCAGCACAGUGAAAUGGACAGAAGGGCAGAGCAA | 0.044 |
| ACGUGCUGCUGGGAGCUCCAGCACAGUGAAAUGGACAGAAGGGCAGAGCAA | 0.163 |
| ACAUGCUGCUGGGAGCUCCAGCACAGUGAAAUGGACAGAAGGGCAGAGCAA | 0.0779 |
| AUCUGCUGCUGGGAGCUCCAGCACAGUGAAAUGGACAGAAGGGCAGAGCAA | 0.216 |
| AUAUGCUGCUGGGAGCUCCAGCACAGUGAAAUGGACAGAAGGGCAGAGCAA | 0.342 |
| AAAUACCACCGGGAGCUCCAGCACAGUGAAAUGGACAGAAGGGCAGAGCAA | 2.08 |
| ACGUCGCGCCGGGAGCUCCAGCACAGUGAAAUGGACAGAAGGGCAGAGCAA | 2.57 |
| ACGUGACGACGGGAGCUCCAGCACAGUGAAAUGGACAGAAGGGCAGAGCAA | 3.19 |
| ACAUCGCGCCGGGAGCUCCAGCACAGUGAAAUGGACAGAAGGGCAGAGCAA | 3.34 |
| ACCUACCACCGGGAGCUCCAGCACAGUGAAAUGGACAGAAGGGCAGAGCAA | 2.27 |
| ACGUGAAGAAGGGAGCUCCAGCACAGUGAAAUGGACAGAAGGGCAGAGCAA | 1.14 |
| AUUUAUAUAUGGGAGCUCCAGCACAGUGAAAUGGACAGAAGGGCAGAGCAA | 0.188 |
| AAAUCGCGCCGGGAGCUCCAGCACAGUGAAAUGGACAGAAGGGCAGAGCAA | 3.39 |
| ACUUAGGGAUGGGAGCUCCAGCACAGUGAAAUGGACAGAAGGGCAGAGCAA | 0.0065 |
| ACCUCGCGCCGGGAGCUCCAGCACAGUGAAAUGGACAGAAGGGCAGAGCAA | 3.45 |
| ACCUGAAGAAGGGAGCUCCAGCACAGUGAAAUGGACAGAAGGGCAGAGCAA | 0.779 |
| ACAUGAAGAAGGGAGCUCCAGCACAGUGAAAUGGACAGAAGGGCAGAGCAA | 0.863 |

| Variant | exon inclusion enrichment index |
| --- | --- |
| ACAUCUUCUCGGGAGCUCCAGCACAGUGAAAUGGACAGAAGGGCAGAGCAA | 1.71 |
| ACUUCGCGCCGGGAGCUCCAGCACAGUGAAAUGGACAGAAGGGCAGAGCAA | 2.87 |
| AAUUAUAUAUGGGAGCUCCAGCACAGUGAAAUGGACAGAAGGGCAGAGCAA | 0.211 |
| ACGUUCUUUUGGGAGCUCCAGCACAGUGAAAUGGACAGAAGGGCAGAGCAA | 0.38 |
| AAGUAUAUAUGGGAGCUCCAGCACAGUGAAAUGGACAGAAGGGCAGAGCAA | 0.0498 |
| ACCUCUUCUCGGGAGCUCCAGCACAGUGAAAUGGACAGAAGGGCAGAGCAA | 1.91 |
| AAUUAGGGAUGGGAGCUCCAGCACAGUGAAAUGGACAGAAGGGCAGAGCAA | 0.0189 |
| AUAUAGGGAUGGGAGCUCCAGCACAGUGAAAUGGACAGAAGGGCAGAGCAA | 0.0451 |
| AAUUGACGACGGGAGCUCCAGCACAGUGAAAUGGACAGAAGGGCAGAGCAA | 4.19 |
| AAUUACCACCGGGAGCUCCAGCACAGUGAAAUGGACAGAAGGGCAGAGCAA | 3.39 |
| ACCUAGGGAUGGGAGCUCCAGCACAGUGAAAUGGACAGAAGGGCAGAGCAA | 0.0355 |
| ACGUACCACCGGGAGCUCCAGCACAGUGAAAUGGACAGAAGGGCAGAGCAA | 2.64 |
| AUUUGACGACGGGAGCUCCAGCACAGUGAAAUGGACAGAAGGGCAGAGCAA | 4.3 |
| AUAUCUUCUCGGGAGCUCCAGCACAGUGAAAUGGACAGAAGGGCAGAGCAA | 3.36 |
| ACUUACCACCGGGAGCUCCAGCACAGUGAAAUGGACAGAAGGGCAGAGCAA | 2 |
| ACGUAGGGAUGGGAGCUCCAGCACAGUGAAAUGGACAGAAGGGCAGAGCAA | 0.00533 |
| AUUUGAAGAAGGGAGCUCCAGCACAGUGAAAUGGACAGAAGGGCAGAGCAA | 1.36 |
| ACGUCACACAGGGAGCUCCAGCACAGUGAAAUGGACAGAAGGGCAGAGCAA | 0.148 |
| AACUCUUCUCGGGAGCUCCAGCACAGUGAAAUGGACAGAAGGGCAGAGCAA | 2.03 |
| AACUCGCGCCGGGAGCUCCAGCACAGUGAAAUGGACAGAAGGGCAGAGCAA | 3.58 |
| AAGUACCACCGGGAGCUCCAGCACAGUGAAAUGGACAGAAGGGCAGAGCAA | 1.76 |
| ACAUACCACCGGGAGCUCCAGCACAGUGAAAUGGACAGAAGGGCAGAGCAA | 1.93 |
| ACGUAUAUAUGGGAGCUCCAGCACAGUGAAAUGGACAGAAGGGCAGAGCAA | 0.0859 |
| AUAUGAAGAAGGGAGCUCCAGCACAGUGAAAUGGACAGAAGGGCAGAGCAA | 1.45 |
| AACUACCACCGGGAGCUCCAGCACAGUGAAAUGGACAGAAGGGCAGAGCAA | 2.1 |
| ACAUAGGGAUGGGAGCUCCAGCACAGUGAAAUGGACAGAAGGGCAGAGCAA | 0.0159 |

| Variant | exon inclusion enrichment index |
| --- | --- |
| AAGUCACACAGGGAGCUCCAGCACAGUGAAAUGGACAGAAGGGCAGAGCAA | 0.0866 |
| AACUCACACAGGGAGCUCCAGCACAGUGAAAUGGACAGAAGGGCAGAGCAA | 0.124 |
| ACUUGAAGAAGGGAGCUCCAGCACAGUGAAAUGGACAGAAGGGCAGAGCAA | 0.788 |
| AACUGACGACGGGAGCUCCAGCACAGUGAAAUGGACAGAAGGGCAGAGCAA | 3.17 |
| AAAUUCUUUUGGGAGCUCCAGCACAGUGAAAUGGACAGAAGGGCAGAGCAA | 0.155 |
| ACAUAUAUAUGGGAGCUCCAGCACAGUGAAAUGGACAGAAGGGCAGAGCAA | 0.0584 |
| ACAUUCUUUUGGGAGCUCCAGCACAGUGAAAUGGACAGAAGGGCAGAGCAA | 0.19 |
| AAUUCGCGCCGGGAGCUCCAGCACAGUGAAAUGGACAGAAGGGCAGAGCAA | 3.98 |
| AACUAUAUAUGGGAGCUCCAGCACAGUGAAAUGGACAGAAGGGCAGAGCAA | 0.0801 |
| AAUUCACACAGGGAGCUCCAGCACAGUGAAAUGGACAGAAGGGCAGAGCAA | 0.316 |
| ACAUCACACAGGGAGCUCCAGCACAGUGAAAUGGACAGAAGGGCAGAGCAA | 0.0802 |
| ACUUCUUCUCGGGAGCUCCAGCACAGUGAAAUGGACAGAAGGGCAGAGCAA | 1.41 |
| AUAUGACGACGGGAGCUCCAGCACAGUGAAAUGGACAGAAGGGCAGAGCAA | 4.33 |
| AAGUCUUCUCGGGAGCUCCAGCACAGUGAAAUGGACAGAAGGGCAGAGCAA | 1.42 |
| AUAUCGCGCCGGGAGCUCCAGCACAGUGAAAUGGACAGAAGGGCAGAGCAA | 5.21 |
| AAUUUCUUUUGGGAGCUCCAGCACAGUGAAAUGGACAGAAGGGCAGAGCAA | 0.53 |
| AUAUUCUUUUGGGAGCUCCAGCACAGUGAAAUGGACAGAAGGGCAGAGCAA | 0.51 |
| AUCUGAAGAAGGGAGCUCCAGCACAGUGAAAUGGACAGAAGGGCAGAGCAA | 2.31 |
| AUUUCACACAGGGAGCUCCAGCACAGUGAAAUGGACAGAAGGGCAGAGCAA | 0.329 |
| AAGUGAAGAAGGGAGCUCCAGCACAGUGAAAUGGACAGAAGGGCAGAGCAA | 0.935 |
| AAUUCUUCUCGGGAGCUCCAGCACAGUGAAAUGGACAGAAGGGCAGAGCAA | 2.9 |
| AAGUAGGGAUGGGAGCUCCAGCACAGUGAAAUGGACAGAAGGGCAGAGCAA | 0.00228 |
| AUUUCGCGCCGGGAGCUCCAGCACAGUGAAAUGGACAGAAGGGCAGAGCAA | 4.96 |
| AAGUCGCGCCGGGAGCUCCAGCACAGUGAAAUGGACAGAAGGGCAGAGCAA | 2.14 |
| ACCUUCUUUUGGGAGCUCCAGCACAGUGAAAUGGACAGAAGGGCAGAGCAA | 0.29 |
| ACCUCACACAGGGAGCUCCAGCACAGUGAAAUGGACAGAAGGGCAGAGCAA | 0.119 |

| Variant | exon inclusion enrichment index |
| --- | --- |
| ACUUGACGACGGGAGCUCCAGCACAGUGAAAUGGACAGAAGGGCAGAGCAA | 2.9 |
| AACUUCUUUUGGGAGCUCCAGCACAGUGAAAUGGACAGAAGGGCAGAGCAA | 0.198 |
| ACAUGACGACGGGAGCUCCAGCACAGUGAAAUGGACAGAAGGGCAGAGCAA | 2.73 |
| AAAUAUAUAUGGGAGCUCCAGCACAGUGAAAUGGACAGAAGGGCAGAGCAA | 0.0687 |
| ACCUAUAUAUGGGAGCUCCAGCACAGUGAAAUGGACAGAAGGGCAGAGCAA | 0.0956 |
| ACUUCACACAGGGAGCUCCAGCACAGUGAAAUGGACAGAAGGGCAGAGCAA | 0.0904 |
| AUAUAUAUAUGGGAGCUCCAGCACAGUGAAAUGGACAGAAGGGCAGAGCAA | 0.247 |
| ACUUUCUUUUGGGAGCUCCAGCACAGUGAAAUGGACAGAAGGGCAGAGCAA | 0.122 |
| AUUUGCUGCUGGGAGCUCCAGCACAGUGAAAUGGACAGAAGGGCAGAGCAA | 0.476 |
| AAUUGCUGCUGGGAGCUCCAGCACAGUGAAAUGGACAGAAGGGCAGAGCAA | 0.419 |
| ACUUGCUGCUGGGAGCUCCAGCACAGUGAAAUGGACAGAAGGGCAGAGCAA | 0.141 |
| ACGUCUUCUCGGGAGCUCCAGCACAGUGAAAUGGACAGAAGGGCAGAGCAA | 1.98 |
| AUUUUCUUUUGGGAGCUCCAGCACAGUGAAAUGGACAGAAGGGCAGAGCAA | 0.329 |
| ACUUAUAUAUGGGAGCUCCAGCACAGUGAAAUGGACAGAAGGGCAGAGCAA | 0.0726 |
| AAAUCACACAGGGAGCUCCAGCACAGUGAAAUGGACAGAAGGGCAGAGCAA | 0.0895 |
| AUAUCACACAGGGAGCUCCAGCACAGUGAAAUGGACAGAAGGGCAGAGCAA | 0.383 |
| AAAUGAAGAAGGGAGCUCCAGCACAGUGAAAUGGACAGAAGGGCAGAGCAA | 0.777 |
| AACUGCUGCUGGGAGCUCCAGCACAGUGAAAUGGACAGAAGGGCAGAGCAA | 0.0113 |
| AAGUGCUGCUGGGAGCUCCAGCACAGUGAAAUGGACAGAAGGGCAGAGCAA | 0.0392 |
| AAAUGCUGCUGGGAGCUCCAGCACAGUGAAAUGGACAGAAGGGCAGAGCAA | 0.0502 |
| AAAUAGGGAUGGGAGCUCCAGCACAGUGAAAUGGACAGAAGGGCAGAGCAA | 0.00701 |
| AAAUCUUCUCGGGAGCUCCAGCACAGUGAAAUGGACAGAAGGGCAGAGCAA | 1.94 |
| AUUUCUUCUCGGGAGCUCCAGCACAGUGAAAUGGACAGAAGGGCAGAGCAA | 3.26 |
| AAAUGACGACGGGAGCUCCAGCACAGUGAAAUGGACAGAAGGGCAGAGCAA | 2.68 |
